Source: the supplement of paper PMC10126150
± gives the standard deviation of the averaged measurements.

System: ATP
Experiment: switch fluorescence ratio, 500 uM ATP over buffer (Cy3 cluster intensity, sum of 5 cycles each) (fold (ratio)); higher = stronger signal-on switching upon ATP binding; sequences stand for … in TCGTCGGCAGCGTCAGATGTGTATAAGAGACAGTTTTTTTTTTTTTTTTTTTTTTTTT…TC
Details: aptamer strand: ATP DNA aptamer (quencher-CACCTGGGGGAGTATTGCGGAGGAAGG + anchor), 100 nM annealed; ATP concentration: 500 uM
Procedure, shortened: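 Per cluster, summed Cy3 intensity from the target cycles was divided by that from the buffer cycles to give the fluorescence ratio, then averaged per switch-domain sequence. Clusters outside 100-1000 RFU were excluded. The Cy3-labelled switching-strand clusters, on a modified Illumina MiSeq flow-cell, were annealed to 100 nM quencher-labelled ATP aptamer and imaged in selection buffer, then after 15 min with 500 uM ATP at 22 °C, for five cycles with NaOH stripping and re-annealing between them.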
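Further: ATP exposure 15 min at 22 °C before imaging.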

Sequence	switch fluorescence ratio
GCGGGACGTG	0.9857 ± 0.0098
GCTTGTTCGG	1.04 ± 0.011
AAAAAAGGGG	1.87 ± 1.5
GGAGAATGCG	1.02 ± 0.013
AGTTGGGTTT	0.9964 ± 0.0071
ATGCGCAAGG	1.25 ± 0.033
TTTAAGGCAG	1.005 ± 0.0023
GTCGGTAGGT	1 ± 0.032
TAGCAGGTGG	1.15 ± 0.14
GAATGGAGAA	0.992 ± 0.078
CAGTCCCCTT	1.33 ± 0.44
AGCACGTTAT	1.256 ± 0.012
GGTGGGGTGA	0.9856 ± 0.0078
CAATGATCTT	1.02 ± 0.014
GGGGCCCGGC	0.904 ± 0.013
ACTTCACTCG	1.42 ± 0.098
CGTCGGAGTC	1.04 ± 0.031
GACGTTAGGG	0.957 ± 0.042
CGTATCAGGG	1.01 ± 0.032
TAGGTCCTTT	1.02 ± 0.02
ATATATTTCG	1.01 ± 0.017
TTATGGATTT	1.01 ± 0.037
TGGCAGGTTT	1.015 ± 0.01

Sequence	switch fluorescence ratio
GACTGAGTTC	0.972 ± 0.042
ACTACGCTTG	1.29 ± 0.022
ATGTGGATTG	1.016 ± 0.009
GGTGCCAAGG	0.959 ± 0.02
CATTGCAGAT	0.981 ± 0.037
CGGGGATGTG	1.02 ± 0.025
TTATCTTGTC	1.03 ± 0.072
TTTATTAGGC	0.996 ± 0.022
CCAACAGGCC	1.14 ± 0.12
CGTAAAGCCT	0.991 ± 0.02
TTTTTGAAAA	1.018 ± 0.0055
CTTGGGGGGG	0.991 ± 0.02
AGATGGAGCT	0.9875 ± 0.0055
TTGCTGGTTG	1.01 ± 0.03
TCAGAGGGAA	1.07 ± 0.1
TTGAAAGGAG	1 ± 0.026
GGGGAGAGGA	0.987 ± 0.037
GTTCGCGGGG	1.06 ± 0.12
TGAGTAGCTC	0.9715 ± 0.0037
GTTCGGGGTA	0.995 ± 0.031
CGAAAATTCG	1.03 ± 0.048
TGGAAATAAA	0.9968 ± 0.0051
ATCAAGTGGT	0.9701 ± 0.006

Sequence	switch fluorescence ratio
AGAGTAATCG	0.983 ± 0.07
TGAAGGGGAT	1.02 ± 0.045
TTAACTTTTT	1.07 ± 0.053
TTACTTGCGT	1.06 ± 0.035
CGATGGAGTG	0.983 ± 0.027
TATTAGGGTC	1.02 ± 0.02
GGCAGTCACG	1.02 ± 0.014
AGGGCATTAT	1.04 ± 0.047
AGCTATGTGG	0.9812 ± 0.0064
GAGTGTTTGG	0.949 ± 0.034
ATTGGCACGC	1.36 ± 0.42
ATCGTTCGCG	0.996 ± 0.016
CTGTAATTAT	1 ± 0.011
TGATACCGTG	1.01 ± 0.017
AGTTTTAGGT	1.02 ± 0.036
TGTCGTGGGA	1.01 ± 0.038
AGAGTGGACA	1 ± 0.042
AGGCCTTGGC	1.018 ± 0.0039
TTTCAGCGGG	1 ± 0.018
GGCTGAGGCA	1.01 ± 0.029
AGAGTGATCT	0.98437 ± 0.00057
GGGGTGCAGC	1.05 ± 0.02
CTCTAATGAA	0.992 ± 0.037

Sequence	switch fluorescence ratio
TGAAAGAGGC	0.999 ± 0.014
GGGCATCATG	1.04 ± 0.011
GGCGCCATGG	0.986 ± 0.055
GCTTAGGTCA	0.982 ± 0.034
TCGGGGTTTG	1 ± 0.016
TATTGAAGGT	1.026 ± 0.0075
GCACGCCGAG	1.01 ± 0.012
GTTATCAGAG	0.977 ± 0.021
TTAAACCTTG	1.15 ± 0.042
TTTTGACTGC	0.977 ± 0.05
CAGGTTGTTT	1.23 ± 0.45
TTAGGGGGAG	1.03 ± 0.065
GAGTCGGCCT	0.975 ± 0.012
GCTTGTCTTC	1.005 ± 0.0014
AGTAGATTTT	0.986 ± 0.04
GGGTTTACAA	0.989 ± 0.029
GAAGGGGTAA	1.18 ± 0.3
GATCAATTGG	1.02 ± 0.026
TTAAGATTGG	0.959 ± 0.015
ACCTACTGAG	1.351 ± 0.0076
CGTTACACAA	1.04 ± 0.035
CTGGGGTTAC	1.77 ± 1
GTGTACGGTG	1.01 ± 0.013

Sequence	switch fluorescence ratio
TCGAGCTGAA	1.018 ± 0.0016
AAATAGAAGA	1.03 ± 0.038
GAGGTGCATG	0.949 ± 0.024
GAGTGGTGTT	0.983 ± 0.049
CTGGAGGGGA	1.04 ± 0.034
CACAAGGGCA	1.028 ± 0.0061
CTCAATTCAA	1.02 ± 0.015
AATTCTGAGG	0.977 ± 0.025
TCGCGGGGGG	0.976 ± 0.034
TTACTTTCCG	1.11 ± 0.019
GGGTCGCGCC	1.01 ± 0.046
TTTTGTAAGT	0.992 ± 0.029
CGGATGGGGT	0.973 ± 0.038
GGTTGTTGGA	0.999 ± 0.0057
CTCTGGGGGA	1.05 ± 0.068
AAGAGAATGG	0.984 ± 0.052
CATTTATAAA	0.992 ± 0.011
TGGAAAAGAT	0.995 ± 0.016
AAAATTTTGA	0.992 ± 0.025
TAACAGTAAC	1.08 ± 0.05
TGTAGATTGT	1.01 ± 0.049
CCTGCGTAAG	2.29 ± 0.11
TGTTACATGT	1.04 ± 0.041

Sequence	switch fluorescence ratio
ATGTTCAGTG	0.985 ± 0.03
GCGCAGAACG	1.07 ± 0.015
GGATTGGCGT	1 ± 0.044
CTGGGGTTTC	0.997 ± 0.026
CGGTTGATGG	0.969 ± 0.074
TTTTATTCTG	1.01 ± 0.038
ATTAGTGATG	0.989 ± 0.016
TTCGGAGTT	1.04 ± 0.017
AATGGTCATG	0.993 ± 0.075
GGGTTTTGGC	1 ± 0.066
TGTGGAAGGA	0.9862 ± 0.0039
GGTCCGGCGG	0.984 ± 0.057
TTTTTTCTCT	0.994 ± 0.02
TGTTTCCTTT	1 ± 0.019
CTGTTTAGGA	1.02 ± 0.053
CGGATGTGCA	0.981 ± 0.018
GGGATATTGG	0.992 ± 0.013
ACAGTCTATT	1.02 ± 0.043
TAAAGGGAAG	1.01 ± 0.021
ATCGTACAGC	1.13 ± 0.017
CAAATGGTTT	1.05 ± 0.08
GATAGAGGGG	0.984 ± 0.028
ATCATAATTG	1.005 ± 0.0092

Sequence	switch fluorescence ratio
CGTTTGATTA	0.989 ± 0.017
ATATTGACCG	1.03 ± 0.022
CTGCCCGCCC	1.3 ± 0.12
TGTCCGGTTT	1.25 ± 0.36
ATCGTTGCGT	1.02 ± 0.031
GGACGTATTA	1.03 ± 0.051
TATGGCGGGG	1.02 ± 0.03
GGGCCTGGTC	1.02 ± 0.032
CTGGGAATTG	1.05 ± 0.043
GCATCGAGGC	1.01 ± 0.14
ACGGGGTTCT	0.965 ± 0.032
ATGCGTGGTA	1.02 ± 0.041
ATCTCCGGTT	1.1 ± 0.17
GGATACGTTT	0.994 ± 0.012
AGGGGTTGTA	0.971 ± 0.02
AAAAACATGG	1.012 ± 0.0096
CCATTCATAG	0.973 ± 0.022
TGCTTGCGGA	1.02 ± 0.023
GTGTATATAC	0.993 ± 0.013
